Experimental findings from PMC4974930 are described below.

Assay in all cases: cross-linking; 0.3 mg/ml purified F1 mutant in buffer A (20 mM HEPES pH 7.4, 100 mM KCl, 5 mM MgCl2, 5% glycerol) with trans-ABDM (azobenzene-dimaleimide), at least 2 h at room temperature, quenched with 1 mM DTT; 8% SDS-PAGE, intensity of the α/β dimer band relative to the monomer bands
The target of assay [1] is E. coli F1 ATPase β subunit, cysteine-less, 6xHis-tagged, Q324C (E. coli).
Assay [2] has as its target E. coli F1 ATPase β subunit, cysteine-less, 6xHis-tagged, S327C (E. coli).
Assay [3] deals with E. coli F1 ATPase β subunit, cysteine-less, 6xHis-tagged, G412C (E. coli).
Assay [4] has as its target E. coli F1 ATPase β subunit, cysteine-less, 6xHis-tagged, V409C (E. coli).
For assay [5] the target is unchanged. The source holds these as a separate data set.

Like-named read-outs stand apart in the source and are kept apart here.

As to “E. coli F1 ATPase α subunit, cysteine-less, S338C (from UniProt P0ABB0 1-513) (natural protein)”, the crosslinking ratio in assay [1] is 0.2. On to “E. coli F1 ATPase α subunit, cysteine-less, N369C (from UniProt P0ABB0 1-513) (natural protein)”, for which the crosslinking ratio in assay [2] worked out at 0.2. Take “E. coli F1 ATPase α subunit, cysteine-less, G379C (from UniProt P0ABB0 1-513) (natural protein)”: the crosslinking ratio in assay [3] turned out to be 0.3. With “E. coli F1 ATPase α subunit, cysteine-less, A380C (from UniProt P0ABB0 1-513) (natural protein)”, the values for the crosslinking ratio in assay [4] and in assay [5] were 0.4 and 0.3, respectively.
